Data from the supplement of paper PMC10065799, “High-throughput profiling of sequence recognition by tyrosine kinases and SH2 domains using bacterial peptide display” (eLife, 2023).

The sequences below were run on c-Src (assay: phosphorylation enrichment, bacterial display (enrichment ratio); higher = better substrate or ligand; peptides without Tyr show the background).
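Wherever SH2 binding enrichment of the phosphorylated peptide, bacterial display is given: peptide library displayed on the E. coli surface as eCPX fusions, selected cells deep-sequenced, score is each peptide's frequency after selection divided by its frequency in the input.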
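Wherever phosphorylation enrichment, bacterial display is given: 11-residue human phosphosite peptides and single-mutation variants displayed on the E. coli surface, counted by deep sequencing, each peptide's frequency after selection divided by its frequency in the unselected input library; frequency after pTyr selection over input frequency; kinase dosed for 20-30% of maximal phosphorylation in three min.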

Sequence	phosphorylation enrichment
MLNTNYHLPPS [MT-ATP8_Y33]	0.354
FTFNSYFMHWV [IGHV1-46_Y51_T49N_YF]	0.555
AKAFIYASHIV [ZNF573_Y229_G224A]	1.53
ETKKQYDSFTF [TMED3_Y85_YF]	0.564
QRVLLYVRRET [GRHL3_Y518]	0.834
SLTRLYVGENA [NLRP3_Y861]	0.357
PFQGAYLKINK [MYO1B_Y967_E969K]	0.319
LGLDECLDKLK [FMNL2_Y352_Y352C]	0.92
SEELHYFVQNH [UQCRC2_Y207]	0.685
TPTFPYLLPKS [PLD2_Y580_YF]	0.451
GGYNNYGYGND [HNRNPH3_Y159]	0.456
QDTSRYTVSNL [BIRC3_Y245]	0.617
RRERLYGGGGG [FUS_Y526_P525L]	0.878
TVSSDYLHPQF [CCPG1_Y569_F566S_YF]	0.457
PFTRNYFVQAV [CYBA_Y87_R90Q_YF]	0.353
PNLILYGDFRQ [MYH7_Y715_R712L]	2.98
SVTCMYSPALN [TP53_Y126_T125M]	0.804
RNDQVYQPLRD [CD3D_Y149]	4.45
KAALSYVSEIG [BPIFB2_Y36]	0.372
EAVKNYTEKRG [PBRM1_Y672_D674E]	0.335
EAMPDYKKQLR [SPATA18_Y229_S227P]	0.378
SHGKRYRVPSD [HHIPL2_Y395]	0.352
RRYVYYYSYLL [PTEN_Y177]	0.79
FKEQGYHRLPS [RIN1_Y681_P686S_YF]	0.818
EVASVYESFQP [MAVS_Y92_Q93E_YF]	8.96
DFFDLYGGEKK [PTPN11_Y66_F71K_YF]	2.26
ALIKAYDKAVA [SMN1_Y43]	0.353
MAFDRYVAICA [OR52J3_Y125_V128I]	0.394
KLMTEYKKRKQ [ARFGEF3_Y2029]	0.442

These sequences were tested against Grb2 SH2 (UniProt P62993) (assay: SH2 binding enrichment of the phosphorylated peptide, bacterial display (enrichment ratio); higher = better substrate or ligand; peptides without Tyr show the background).

SH2 binding enrichment	Sequence
0.82	AKAFIYASHIV [ZNF573_Y229_G224A]
0.79	ETKKQYDSFTF [TMED3_Y85_YF]
0.806	SEELHYFVQNH [UQCRC2_Y207]
0.737	SVTCMYSPALN [TP53_Y126_T125M]
1.01	EAVKNYTEKRG [PBRM1_Y672_D674E]
0.835	EAMPDYKKQLR [SPATA18_Y229_S227P]
0.631	RRYVYYYSYLL [PTEN_Y177]
1.01	FKEQGYHRLPS [RIN1_Y681_P686S_YF]
0.994	DFFDLYGGEKK [PTPN11_Y66_F71K_YF]
0.773	ALIKAYDKAVA [SMN1_Y43]

Further lines, the sequence ahead of its results:

Sequence	SH2 binding enrichment
MLNTNYHLPPS [MT-ATP8_Y33]	1
FTFNSYFMHWV [IGHV1-46_Y51_T49N_YF]	1.12
QRVLLYVRRET [GRHL3_Y518]	0.713
SLTRLYVGENA [NLRP3_Y861]	0.806
PFQGAYLKINK [MYO1B_Y967_E969K]	1.11
LGLDECLDKLK [FMNL2_Y352_Y352C]	0.934
TPTFPYLLPKS [PLD2_Y580_YF]	1.01
GGYNNYGYGND [HNRNPH3_Y159]	1.22
QDTSRYTVSNL [BIRC3_Y245]	0.879
RRERLYGGGGG [FUS_Y526_P525L]	0.657
TVSSDYLHPQF [CCPG1_Y569_F566S_YF]	0.848
PFTRNYFVQAV [CYBA_Y87_R90Q_YF]	0.634
PNLILYGDFRQ [MYH7_Y715_R712L]	0.944
RNDQVYQPLRD [CD3D_Y149]	0.787
KAALSYVSEIG [BPIFB2_Y36]	0.914
SHGKRYRVPSD [HHIPL2_Y395]	0.887
EVASVYESFQP [MAVS_Y92_Q93E_YF]	0.783
MAFDRYVAICA [OR52J3_Y125_V128I]	1.08
KLMTEYKKRKQ [ARFGEF3_Y2029]	1.27

Each sequence was assayed against SHP2-C SH2 in the same assay as above.

SH2 binding enrichment	Sequence
0.724	AKAFIYASHIV [ZNF573_Y229_G224A]
0.609	ETKKQYDSFTF [TMED3_Y85_YF]
0.819	SEELHYFVQNH [UQCRC2_Y207]
0.52	SVTCMYSPALN [TP53_Y126_T125M]
0.612	EAVKNYTEKRG [PBRM1_Y672_D674E]
0.649	EAMPDYKKQLR [SPATA18_Y229_S227P]
0.65	RRYVYYYSYLL [PTEN_Y177]
0.762	FKEQGYHRLPS [RIN1_Y681_P686S_YF]
0.86	DFFDLYGGEKK [PTPN11_Y66_F71K_YF]
0.573	ALIKAYDKAVA [SMN1_Y43]

Further lines, the sequence ahead of its results:

Sequence	SH2 binding enrichment
MLNTNYHLPPS [MT-ATP8_Y33]	0.67
FTFNSYFMHWV [IGHV1-46_Y51_T49N_YF]	1.07
QRVLLYVRRET [GRHL3_Y518]	0.421
SLTRLYVGENA [NLRP3_Y861]	0.452
PFQGAYLKINK [MYO1B_Y967_E969K]	0.908
LGLDECLDKLK [FMNL2_Y352_Y352C]	0.492
TPTFPYLLPKS [PLD2_Y580_YF]	1.01
GGYNNYGYGND [HNRNPH3_Y159]	0.571
QDTSRYTVSNL [BIRC3_Y245]	0.54
RRERLYGGGGG [FUS_Y526_P525L]	0.404
TVSSDYLHPQF [CCPG1_Y569_F566S_YF]	0.704
PFTRNYFVQAV [CYBA_Y87_R90Q_YF]	0.467
PNLILYGDFRQ [MYH7_Y715_R712L]	0.823
RNDQVYQPLRD [CD3D_Y149]	0.491
KAALSYVSEIG [BPIFB2_Y36]	0.58
SHGKRYRVPSD [HHIPL2_Y395]	0.592
EVASVYESFQP [MAVS_Y92_Q93E_YF]	0.475
MAFDRYVAICA [OR52J3_Y125_V128I]	0.635
KLMTEYKKRKQ [ARFGEF3_Y2029]	0.878

The sequences below were run against c-Src SH2 in the same assay as above.

SH2 binding enrichment	Sequence
0.637	AKAFIYASHIV [ZNF573_Y229_G224A]
0.513	ETKKQYDSFTF [TMED3_Y85_YF]
0.587	SEELHYFVQNH [UQCRC2_Y207]
0.457	SVTCMYSPALN [TP53_Y126_T125M]
0.446	EAVKNYTEKRG [PBRM1_Y672_D674E]
0.406	EAMPDYKKQLR [SPATA18_Y229_S227P]
0.474	RRYVYYYSYLL [PTEN_Y177]
1.24	FKEQGYHRLPS [RIN1_Y681_P686S_YF]
0.601	DFFDLYGGEKK [PTPN11_Y66_F71K_YF]
0.571	ALIKAYDKAVA [SMN1_Y43]

Second part, the sequence before the results:

Sequence	SH2 binding enrichment
MLNTNYHLPPS [MT-ATP8_Y33]	0.515
FTFNSYFMHWV [IGHV1-46_Y51_T49N_YF]	0.795
QRVLLYVRRET [GRHL3_Y518]	0.488
SLTRLYVGENA [NLRP3_Y861]	0.438
PFQGAYLKINK [MYO1B_Y967_E969K]	1.61
LGLDECLDKLK [FMNL2_Y352_Y352C]	0.75
TPTFPYLLPKS [PLD2_Y580_YF]	0.587
GGYNNYGYGND [HNRNPH3_Y159]	0.934
QDTSRYTVSNL [BIRC3_Y245]	0.453
RRERLYGGGGG [FUS_Y526_P525L]	0.402
TVSSDYLHPQF [CCPG1_Y569_F566S_YF]	0.527
PFTRNYFVQAV [CYBA_Y87_R90Q_YF]	0.533
PNLILYGDFRQ [MYH7_Y715_R712L]	0.482
RNDQVYQPLRD [CD3D_Y149]	0.663
KAALSYVSEIG [BPIFB2_Y36]	0.457
SHGKRYRVPSD [HHIPL2_Y395]	0.557
EVASVYESFQP [MAVS_Y92_Q93E_YF]	0.561
MAFDRYVAICA [OR52J3_Y125_V128I]	0.974
KLMTEYKKRKQ [ARFGEF3_Y2029]	1.08
